This is an account of results in article PMC3833899 (Brain research, 2013).

For this assay, the target named is Recombinant chick netrin-1 (chick, UniProt Q90922 26-606). The assay can be described thus: retention on a 30 kD cut-off size exclusion.

Consider PRYQHTGAVYLLSASPQ [Integrin α3 peptide], for which the binding result is “binds”.
